This is an account of results in patent US20240043534A1.

Numbering of substitutions follows the chain as printed.

Assay [1] has as its target Fab^H (Herceptin Fab scaffold with wt human kappa Lc; Lc aa 123-127 EQLKS). Nature of the assay: SPR (preliminary results), Protein G variant against Fab scaffold.
Assay [2] concerns the target “Λ” Fab scaffold (4D5 scaffold with SEELQANK in the Lc region). The description is as above.
Assay [3] addresses yeast histone chaperone protein Asf1 (Anti-silencing factor 1) (yeast) (UniProt P32447). In words: cell-based or functional assay.
Assay [4] deals with N-terminal methyltransferase domain of the Zika virus bifunctional NS5 enzyme (MT ZIKV) (Zika virus). In words: cell-based or functional assay.
The target is the same in assay [5]. Nature of the assay: SPR, Fab as analyte on His-tag-immobilized antigen. A general note: Surface plasmon resonance follows binding to a sensor surface in real time, without labels.
Assay [6] concerns the target Fab with CK (kappa) light chain constant domain. Nature of the assay: ELISA. (ELISA stands for enzyme-linked immunosorbent assay.)
For assay [7], the target named is Fab^H(Her2)-linker-GA1 fusion (13 residue linker). In words: cell-based or functional assay.
Assay [8] deals with FabHS (human 4D5 scaffold with residues PEELRTNK replacing amino acids corresponding to 15-22 of SEQ ID NO:1). Nature of the assay: protein ELISA.
Sequence of FabHS (human 4D5 scaffold with residues PEELRTNK replacing amino acids corresponding to 15-22 of SEQ ID NO:1) (light, as listed by the source): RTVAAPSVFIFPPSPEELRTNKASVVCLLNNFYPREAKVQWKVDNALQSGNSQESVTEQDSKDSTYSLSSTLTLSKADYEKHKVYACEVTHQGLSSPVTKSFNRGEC

Sequence of “Λ” Fab scaffold (4D5 scaffold with SEELQANK in the Lc region) (light, as listed by the source): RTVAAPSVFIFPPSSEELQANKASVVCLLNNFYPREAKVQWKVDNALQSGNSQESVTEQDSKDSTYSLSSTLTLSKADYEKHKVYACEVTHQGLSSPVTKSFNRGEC
Sequence of yeast histone chaperone protein Asf1 (Anti-silencing factor 1) (yeast) (P32447 1-158 limits assumed): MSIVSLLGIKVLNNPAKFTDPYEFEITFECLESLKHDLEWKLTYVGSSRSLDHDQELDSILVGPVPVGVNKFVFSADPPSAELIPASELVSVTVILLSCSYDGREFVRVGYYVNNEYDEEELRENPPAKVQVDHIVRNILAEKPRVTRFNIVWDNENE

B1: Protein G D (designed binder)
chain: TPAVTTYKLVINGRTLSGYTTTTAVDAATAEKVFKQIDMVSSVDGEWTYDDATKTFTVTEKPEKL
On to B1, for which the Kd (as a rule, the equilibrium constant for the complex coming apart) was 15 nM in assay [1] and 50 nM in assay [2].

B2: E11 Asf1 LRT-Fab (Fab, V domains shown)
VH: EVQLVESGGGLVQPGGSLRLSCAASGFNISYSSIHWVRQAPGKGLEWVASISSYYGSTYYADSVKGRFTISADTSKNTAYLQMNSLRAEDTAVYYCARSRGQASWDYWGQGTLVTVSS
VL: DIQMTQSPSSLSASVGDRVTITCRASQSVSSAVAWYQQKPGKAPKLLIYSASSLYSGVPSRFSGSRSGTDFTLTISSLQPEDFATYYCQQSSDDPITFGQGTKVEIKR
Regarding B2, the β-lactamase (BL) split-enzyme complementation, fluorescent signal in assay [3] was < 10 fold.

B3: Z2G6 ZIKV LRT-Fab (Fab, V domains shown)
VH: EVQLVESGGGLVQPGGSLRLSCAASGFNVYYYYIHWVRQAPGKGLEWVASIYSYSGYTYYADSVKGRFTISADTSKNTAYLQMNSLRAEDTAVYYCAREGVWWEDEFYPGLDYWGQGTLVTVSS
VL: B2 VL with S92W, D93S, D94S, P95L, I96F
B3 returned a β-lactamase (BL) split-enzyme complementation, limit of antigen detection in assay [4] of 30 nM. Also, in assay [5], the dissociation constant Kd is 1.7 nM and the off-rate constant (koff) (usually the first-order rate constant of dissociation) stood at 9.2e-05 s⁻¹.

B4: Z2C4 ZIKV LRT-Fab (Fab, V domains shown)
VH: EVQLVESGGGLVQPGGSLRLSCAASGFNVYYSSIHWVRQAPGKGLEWVAYIYPSSGSTYYADSVKGRFTISADTSKNTAYLQMNSLRAEDTAVYYCARSWSPYGMDYWGQGTLVTVSS
VL: B2 VL with S91W, S92Y, D94S, P95L
In turn, B4 gave a β-lactamase (BL) split-enzyme complementation, limit of antigen detection in assay [4] of 30 nM. The molecule further gave a dissociation constant Kd in assay [5] of 0.7 nM.

B5: Protein-G-A1 (SEQ ID NO:27) (designed binder)
chain: MKGETTTEAVDAATAEKVFKQYANDNGVDGEWTYDDATKTFTVTEKPEVIDASELTPAVTTYKLVINGRTLSGYTTTTAVDAATAEKVFKQYAYVHEVDGEWTYDDATKTFTVTEKPEVIDASELTPAVTTYKLVINGRTLSGETTTKAVDAETAEKAFKQYANDNGVDGVWTYDDATKTFTVTE
For B5, the EC50 ratio (preference for CK over Cλ) in assay [6] is > 5000.

B6: hOKT3(S)_LRT (Fab, V domains shown)
VH: EVQLVESGGGLVQPGGSLRLSCAASGYTFTRYTMHWVRQAPGKGLEWIGYINPSRGYTNYNQKFKDKATISTDKSKNTAYLQMNSLRAEDTAVYYCARYYDDHYSLDYWGQGTLVTVSS
VL: DIQMTQSPSSLSASVGDRVTITCSASSSVSYMNWYQQKPGKAPKRWIYDTSKLASGVPSRFSGSGSGTDYTLTISSLQPEDFATYYCQQWSSNPFTFGQGTKVEIKR
B6: in assay [7], the redirected tumor-cell killing (LDH release), PBMC-SKBR3 co-cultures, bi-Fab at 50 nM is < 70%.

B7: Protein-G-HS C6 (designed binder)
chain: MKGETTTEAVDAATAEKVFKQYANDNGVDGEWTYDDATKTFTVTEKPEVIDASELTPAVTTYKLVINGKTLKGETTTEAVDAATAEKVFKQYANDNGVDGEWTYDDATKTFTVTEKPEVIDASELTPAVTTYKLVINGRTLSGETTTKAVDAETAEKAFKQYSRPHVVDGVWTYDDATKTFTVTE
For B7, the IC50 – broadly, the concentration that gives 50% inhibition – in assay [8] amounted to 8 nM.

B8: Protein-G-HS C7 (designed binder)
chain: B7 chain with S163A, R164Y, P165G, H166A
Regarding B8, the IC50 in assay [8] came out at 100 nM.
